The values that follow come from US7244706.

For data set [1], the target named is human lactoferrin (LF), intact, purified from human milk/colostrum (UniProt P02788).
Sequence of human lactoferrin (LF), intact, purified from human milk/colostrum (P02788 20-710): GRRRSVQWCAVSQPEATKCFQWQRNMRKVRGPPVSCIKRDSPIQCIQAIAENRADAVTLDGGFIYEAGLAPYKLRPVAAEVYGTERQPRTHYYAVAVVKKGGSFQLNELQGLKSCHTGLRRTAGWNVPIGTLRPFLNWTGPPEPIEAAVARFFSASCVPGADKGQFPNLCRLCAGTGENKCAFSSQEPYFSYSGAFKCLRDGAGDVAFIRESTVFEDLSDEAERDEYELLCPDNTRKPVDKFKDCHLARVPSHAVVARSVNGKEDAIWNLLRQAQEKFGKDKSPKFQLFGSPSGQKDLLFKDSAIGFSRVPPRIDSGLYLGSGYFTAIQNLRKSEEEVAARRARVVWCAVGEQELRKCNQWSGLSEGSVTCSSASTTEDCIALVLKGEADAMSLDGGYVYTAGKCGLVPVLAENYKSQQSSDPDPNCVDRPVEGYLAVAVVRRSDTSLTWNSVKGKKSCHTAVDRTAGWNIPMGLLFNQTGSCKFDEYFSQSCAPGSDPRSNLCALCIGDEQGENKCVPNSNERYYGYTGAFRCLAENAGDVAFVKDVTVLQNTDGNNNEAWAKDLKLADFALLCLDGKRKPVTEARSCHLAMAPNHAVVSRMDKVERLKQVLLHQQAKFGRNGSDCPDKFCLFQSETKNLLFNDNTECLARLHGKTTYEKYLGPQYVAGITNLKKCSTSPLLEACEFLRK

Sequence of bovine spleen cathepsin D (Sigma) (chain, as listed by the source): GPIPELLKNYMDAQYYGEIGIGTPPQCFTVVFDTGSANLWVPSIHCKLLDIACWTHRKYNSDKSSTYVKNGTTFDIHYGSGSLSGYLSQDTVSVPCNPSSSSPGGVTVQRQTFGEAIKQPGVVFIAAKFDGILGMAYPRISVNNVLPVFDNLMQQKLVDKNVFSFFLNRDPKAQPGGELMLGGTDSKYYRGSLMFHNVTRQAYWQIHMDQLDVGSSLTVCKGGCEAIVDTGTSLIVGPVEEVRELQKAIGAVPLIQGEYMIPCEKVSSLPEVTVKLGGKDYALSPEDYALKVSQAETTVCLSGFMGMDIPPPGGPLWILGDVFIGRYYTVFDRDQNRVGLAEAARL

bovine spleen cathepsin D (Sigma): the “proteolytic release of the N-terminal 6 kDa polypeptide, seen by immunoblot” value in data set [1] is on record as “Exposure of either iron-saturated or iron-free LF to even small amounts of cathepsin D ( 1/200th, w:w) for a period as brief as five minutes yielded the N-terminal 6 kDa polypeptide”. In addition, the “loss of proteolytic release of the 6 kDa fragment from LF, seen by immunoblot” value in the data set with pepstatin A is “incubations of LF performed in the absence of cathepsin D or in the presence of pepstatin A, an inhibitor of cathepsin D, failed to identify a 6 kDa fragment”.
